Consider 72 sequences from the supplement of paper PMC10567573.

The nature of the data set: protein stability index of a GFP-peptide fusion (GPS, HEK-293T) (PSI 1-6); higher = more stable.
The mark [1] stands for this setting: treatment: DMSO, c terminus: a fixed tail appended.
Where [2] appears, read: treatment: MLN4924 1 uM, 8 h, c terminus: a fixed tail appended.

± gives the standard deviation.
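Note: 24-mer peptide tiles fused after GFP, lentivirally expressed, FACS-sorted into six equal bins by GFP/DsRed ratio, decoded by Illumina sequencing, PSI is the read-weighted mean bin number.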

For the sequence SRLLFFLLGFLRIRVRGQRASRLQ [LPCAT4], the protein stability index runs as follows: under setting [1], 2.35 ± 0.09; under setting [2], 2.58 ± 0.31.
On the same counts, the results for SRLQLLGATCMFVASKMKETIPLT [CCND1] are 2.69 ± 0.44 and 2.69 ± 0.66.
For SRWSEASRAILQRVQAAAFGPGQT [ALKBH7] the same measures were 3.01 ± 0.38 and 3.19 ± 0.39.
On the same counts, the results for SSHEVKALGAMWKLHKSQLSQALN [TRIM9] are 2.7 ± 0.41 and 2.58 ± 0.27.
Consider SSQESGEEAGSQENHPQESKGQPR [CHGB], for which the protein stability index was found to be 5.7 ± 0.16 under setting [1] and 5.73 ± 0.097 under setting [2].
With SSREVFTSSSSSSSRQTRPILKEQ [KRT16], the protein stability index is, setting by setting: under setting [1], 4.67 ± 0.11; under setting [2], 4.7 ± 0.3.
For STLKKALPTLSHIQEAQSAWKDDF [YJU2B] the same measures were 3.53 ± 0.36 and 3.75 ± 0.09.
STMLGVFREDPKTREEFLTLIRS [GCH1]: the protein stability index (treatment: DMSO, c terminus: native) turned out to be 2.38 ± 0.64 and the protein stability index (treatment: MLN4924 1 uM, 8 h, c terminus: native) came out at 2.84 ± 0.34.
For STNRRRLSELLRYHTSQSGDEMTS [HSP90AB1], the protein stability index runs as follows: under setting [1], 3.85 ± 0.15; under setting [2], 4.11 ± 0.12.
For STPQGKGEVVKIPSRVHGSLEPFR [PWWP2B] the same measures were 3.86 ± 0.16 and 4.03 ± 0.28.
For SVAFAVAWFLPMPQKSLFFHHIPS [SLC19A2] the same measures were 3.65 ± 0.2 and 3.31 ± 0.23.
For SVLVILISIVIFCLETLPEFRDDR [KCNA4] the same measures were 2.99 ± 0.29 and 2.96 ± 0.5.
As to SVPASDPRSCSSGPAGPYLLSKKG [PLEKHN1], the protein stability index runs as follows: under setting [1], 4.65 ± 0.15; under setting [2], 4.69 ± 0.089.
Turning to SVSLNKTARPFGAPPPADSAPQQN [PDLIM7], the protein stability index was 4.42 ± 0.11 under setting [1] and 4.46 ± 0.13 under setting [2].
On the same counts, the results for SVTEYRLDGHTISDLSRSSRGELI [MYBL2] are 3.67 ± 0.41 and 3.67 ± 0.38.
SWLESCIVGWRCRVGQWVRMENVT [GMPPB] registered a protein stability index under setting [1] of 2.79 ± 0.63 and a protein stability index under setting [2] of 2.69 ± 0.76.
SWNNNDRSLNVFVKEDDKLIFHRH [SPSB1]: the protein stability index runs as follows: under setting [1], 3.17 ± 0.13; under setting [2], 3.29 ± 0.21.
On the same counts, the results for SYEKAVKTRVDLKELGQSQKEQGL [PDZK1] are 4.75 ± 0.15 and 4.84 ± 0.12.
On the same counts, the results for SYYIIQHKPKNSEELYKEIDGVAT [PTPRD] are 2.98 ± 0.4 and 3.18 ± 0.66.
With TAFNFFKMAVSRHLTRGRKMAHVI [BRF1], the protein stability index amounted to 2.66 ± 0.61 under setting [1] and 2.33 ± 0.36 under setting [2].
On the same counts, the results for TALLSSGFSLEDPQTHSNRIYRMI [HSP90AB1] are 2.6 ± 0.36 and 2.56 ± 0.26.
Regarding TANCEACTLGICGQGLKSYMTKPS [RTP4], the protein stability index was determined as 2.89 ± 0.025 under setting [1] and 3.01 ± 0.26 under setting [2].
For TAQVQKDARIGEAEAKRDAGIREA [FLOT1] the same measures were 5.34 ± 0.16 and 5.31 ± 0.19.
Under setting [2], TARFQRNHRLISEILSESVVPDVR [SMARCE1] had a protein stability index of 3.23 ± 0.11.
Take TASSISSSGGSSGSSSDNRTYRYS [DYRK1B]: the protein stability index reads like this: under setting [1], 4.62 ± 0.051; under setting [2], 4.67 ± 0.15.
Take TATMKDLEAEVKDTTRVENLIKSE [R3HDM1]: the protein stability index was found to be 5.36 ± 0.17 under setting [1] and 5.46 ± 0.23 under setting [2].
For TAVAQGGWRSLWLGWGPTALRDVP [SLC25A39] the same measures were 2.45 ± 0.14 and 1.89 ± 0.17.
On the same counts, the results for TCPSSSTASSISSSGGSSGSSSDN [DYRK1B] are 5.35 ± 0.16 and 5.48 ± 0.21.
Turning to TCRPPSSSESSSDSDNSGGGGGGG [ANKRD17], the protein stability index is, setting by setting: under setting [1], 5.44 ± 0.24; under setting [2], 5.43 ± 0.26.
On to TDRRVLLMFLDICSELNKLCQHFE [SPACA9], for which the protein stability index under setting [1] was 2.44 ± 0.56 and the protein stability index under setting [2] came out at 2.38 ± 0.42.
On the same counts, the results for TEIAEQEGNQKGEQATSLAILRVI [KCNA1] are 3.75 ± 0.41 and 3.56 ± 0.2.
For TEKQNFLLFDMTTHPVTNTTEKQR [GOLPH3L] the same measures were 4.31 ± 0.18 and 4.4 ± 0.32.
For TETREEDVTDEHGEREPFAETDEH [FAM9B] the same measures were 5.69 ± 0.061 and 5.63 ± 0.26.
TFICYVASSASAFLTAPLLEFLLA [CMTM3]: the protein stability index was 3.36 ± 0.35 under setting [1] and 2.98 ± 0.39 under setting [2].
For TFNFISSLKAICTEIANCSLKVKF [PLD5] the same measures were 2.68 ± 0.56 and 3.29 ± 0.1.
On the same counts, the results for TGEAGEELDLRLRLAQPSSPEVLT [RTN2] are 4.9 ± 0.41 and 5.01 ± 0.29.
Consider TGEKLLELNGHTQKITAIITFPSL [WDR41], for which the protein stability index was found to be 2.45 ± 0.58 under setting [1] and 2.3 ± 0.55 under setting [2].
For TGIVSVAFLLLPLPDELGSQLPQV [MOSPD3] the same measures were 2.75 ± 0.59 and 2.72 ± 0.86.
On to TGVELAPRSAEPGYLVTKVVAVDR [PCDHGA10], for which the protein stability index was determined as 3.94 ± 0.34 under setting [1] and 3.93 ± 0.084 under setting [2].
In the case of TGYLSTMVGLILGPFGINHGIELH [PCMTD1], the protein stability index was determined as 3.29 ± 0.44 under setting [1] and 3.35 ± 0.25 under setting [2].
Consider THGALCLELLVNNGADVNIQSKDG [ANKRD44], for which the protein stability index reads like this: under setting [1], 3.99 ± 0.22; under setting [2], 4.01 ± 0.37.
On the same counts, the results for THICRSHNSINQSLDESVIYGPGN [SLC2A12] are 3.62 ± 0.18 and 3.74 ± 0.2.
On the same counts, the results for TIKKRLENNYYWSASECMQDFNTM [BRD3] are 2.08 ± 0.47 and 2.15 ± 0.43.
For TIKLWKITERDKRPEGYNLKDEEG [PPP2R2C] the same measures were 4.05 ± 0.25 and 4.03 ± 0.17.
As for TIKPRRVEPVCSGLQAQILHCYRD [CHCHD6], the protein stability index is 2.98 ± 0.051 under setting [1] and 2.98 ± 0.21 under setting [2].
In turn, TIKSLSAELLKANEIIKKLQGDLK [SASS6] gave a protein stability index under setting [1] of 2.16 ± 0.48 and a protein stability index under setting [2] of 2.37 ± 0.36.
Regarding TIQGVPLSSYISINSDTGVLYALR [PCDHGA10], the protein stability index turned out to be 2.19 ± 0.096 under setting [1] and 2.14 ± 0.17 under setting [2].
For TIVFLDKEVFASRISNPSDDNSCE [PCMTD2] the same measures were 3.8 ± 0.4 and 3.83 ± 0.21.
On the same counts, the results for TLKFYCLPDNYEIIDSSLEDITYV [USP39] are 2.18 ± 0.047 and 2.29 ± 0.19.
For TLQPPEFLYSHGVPRTLSPHQYHS [TBX5] the same measures were 2.83 ± 0.14 and 3.06 ± 0.12.
Regarding TLQSITWQMIEQIQFIKLFGMAKI [HNF4A], the protein stability index reads like this: under setting [1], 2.86 ± 0.6; under setting [2], 2.87 ± 0.42.
For TLSISDVRTLSEPPDKGEEQVNFC [ZBTB22] the same measures were 4.94 ± 0.21 and 5.09 ± 0.22.
On to TLVQREEPLRILSKYHRFISFTLY [CDS2], for which the protein stability index reads like this: under setting [1], 2.95 ± 0.8; under setting [2], 2.8 ± 0.86.
On the same counts, the results for TMSIPVAMETDGPLFEDVQMLRKT [PPP2R5C] are 4.22 ± 0.12 and 4.3 ± 0.1.
On the same counts, the results for TPASNHLPGWEDIESKIPLNMEEP [SLC19A2] are 5.28 ± 0.21 and 5.44 ± 0.066.
TPQEPWPGPTAPSPTSRPPWAVDP [PDLIM7] came in with a protein stability index under setting [1] of 4.19 ± 0.21 and a protein stability index under setting [2] of 4.28 ± 0.093.
For TPWALALLRTFDAGEFTGWEKVGS [RIPK4] the same measures were 2.29 ± 0.61 and 1.49 ± 0.13.
For TQATETTTTRHKRTANPSKTIDLG [CLINT1] the same measures were 4.88 ± 0.09 and 5.05 ± 0.13.
For TRLQDCYVDSPALTNIWMARTCAK [C22orf31] the same measures were 2.47 ± 0.2 and 2.69 ± 0.11.
With TRQLSLAVKDGLIVETLTVGCKGS [ZMYND11], the protein stability index by setting is: under setting [1], 3.17 ± 0.15; under setting [2], 3.49 ± 0.26.
Turning to TTLLRRYNIPHGPVVGSTRRLYEK [EMD], the protein stability index stood at 3.14 ± 0.16 under setting [1] and 3.25 ± 0.15 under setting [2].
For TTNVGRYPVGRFPSLHVVKVLLDC [FEM1A] the same measures were 2.52 ± 0.4 and 2.48 ± 0.27.
For TTPLQLAIIRERSSCVKILLDHNA [ASB7] the same measures were 2.26 ± 0.16 and 2.34 ± 0.22.
On the same counts, the results for TTSTLKAWLNEHRKNPYPTKGEKI [IRX6] are 3.13 ± 0.44 and 3.37 ± 0.16.
Consider TVAAETRAVIAWMEKIPFVLGGNL [CPXM2], for which the protein stability index is, setting by setting: under setting [1], 2.56 ± 0.86; under setting [2], 2.71 ± 0.6.
For TVEDLFYNIATRRKALKNPSEEYG [MLH1] the same measures were 3.02 ± 0.8 and 3.06 ± 0.1.
On the same counts, the results for TVEKPGGKKVAVVLMDTQGAFDSQ [ATL3] are 4.18 ± 0.13 and 4.16 ± 0.22.
On the same counts, the results for TVMEKCSDGWWRGSYNGQIGWFPS [NCK2] are 2.45 ± 0.51 and 2.26 ± 0.37.
Regarding TVSTMYYLWMCSTLALLLNFLACL [SCAMP3], the protein stability index worked out at 3.13 ± 0.22 under setting [1] and 3.03 ± 0.63 under setting [2].
As to TVVEEPVDITPYLDQLDESLRDKV [INTS3], the protein stability index under setting [1] amounted to 5.12 ± 0.16 and the protein stability index under setting [2] stood at 5.03 ± 0.33.
For TVVPLDDATQEYKEKLQKCLEPLE [TRIM39] the same measures were 5.27 ± 0.13 and 5.22 ± 0.21.
Consider VAAACACGFTVAQIITSLVFHLPF [OR10K2], for which the protein stability index was 3.43 ± 0.54 under setting [1] and 3.42 ± 0.68 under setting [2].
